Test results as given in patent publication EP4786492A1 (Simcere Zaiming Pharmaceutical Co., Ltd., dated 2026).

T1: human DLL3-his protein (human, UniProt Q9NYJ7 27-492)
T1 construct: also called human DLL3 protein; DLL3 antigen protein; not shown: His tag
T1 sequence: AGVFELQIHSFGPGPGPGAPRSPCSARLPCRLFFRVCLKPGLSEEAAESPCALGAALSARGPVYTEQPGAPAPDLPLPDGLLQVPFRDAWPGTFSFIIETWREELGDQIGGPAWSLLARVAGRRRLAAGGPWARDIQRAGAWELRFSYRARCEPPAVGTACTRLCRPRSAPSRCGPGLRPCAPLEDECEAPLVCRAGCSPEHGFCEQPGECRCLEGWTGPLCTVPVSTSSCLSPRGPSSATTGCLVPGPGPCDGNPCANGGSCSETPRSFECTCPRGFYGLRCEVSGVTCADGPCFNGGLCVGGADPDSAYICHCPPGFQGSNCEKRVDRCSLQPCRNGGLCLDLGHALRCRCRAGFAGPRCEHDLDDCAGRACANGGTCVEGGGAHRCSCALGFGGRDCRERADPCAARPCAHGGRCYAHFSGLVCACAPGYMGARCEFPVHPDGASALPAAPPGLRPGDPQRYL

T2: monkey DLL3 on CHO K1-cyno DLL3 cells (cynomolgus monkey)
T2 construct: also called monkey DLL3 recombinant cell line
T2 chain: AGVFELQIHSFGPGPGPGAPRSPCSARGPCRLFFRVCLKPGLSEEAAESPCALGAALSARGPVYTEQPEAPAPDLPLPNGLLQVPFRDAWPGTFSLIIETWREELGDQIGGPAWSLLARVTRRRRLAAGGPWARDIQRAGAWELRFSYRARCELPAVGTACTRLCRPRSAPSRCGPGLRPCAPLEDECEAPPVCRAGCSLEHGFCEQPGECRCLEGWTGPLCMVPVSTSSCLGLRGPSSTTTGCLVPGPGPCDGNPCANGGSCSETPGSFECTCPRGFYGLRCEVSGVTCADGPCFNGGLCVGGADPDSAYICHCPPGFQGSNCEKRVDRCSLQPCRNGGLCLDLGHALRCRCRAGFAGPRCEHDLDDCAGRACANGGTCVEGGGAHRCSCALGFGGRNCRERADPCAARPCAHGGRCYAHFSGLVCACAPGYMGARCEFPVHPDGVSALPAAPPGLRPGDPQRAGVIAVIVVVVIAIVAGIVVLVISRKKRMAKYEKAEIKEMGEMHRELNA


Columns and labels:
human DLL3-his protein = target: T1, human DLL3-his protein; assay: ELISA
[1] = target: T2, monkey DLL3 on CHO K1-cyno DLL3 cells; assay: FACS, CHO K1-cyno DLL3 cells

binding result (human DLL3-his protein)	binding result [1]	Binder
binds	–	mab009 scFv-hFc (Fc fusion, human-murine chimeric scFv-hFc, VL-linker-VH-human IgG1 Fc; not shown: linker; Fc fragment of human IgG1) scFv (part 1 of 2): DIVMTQSPATLSVTPGDRVSLSCRASQTISDYLHWYQQRSHESPRLLIKYASQSISGIPSRFSGSGSGSDFTLSINSVEPEDVGVYYCQNGHSFPLTFGAGTKLELK scFv (part 2 of 2): EVQLQQSGTVLARPGASVKMSCKTSGYTFTSYWMHWVKQSPGQGLEWIGTIYPGNSDTRYNQKFKDKAYVTAVTSASTAYMELSSLTNEESAVYYCTRSYDYGDLDYWGQGTTLTVSS
binds	binds	mab015 scFv-hFc (Fc fusion, human-murine chimeric scFv-hFc, VL-linker-VH-human IgG1 Fc; not shown: linker; Fc fragment of human IgG1) scFv (part 1 of 2): NIVMTQSPKSMSMSVGERVTLSCKASENVGTYVSWFQQKPEQSPKLLIYGASNRYTGVPDRFTGSGSATDFTLTISSVQAEDLADYHCGQFYSFPCTFGGGTKLEIK scFv (part 2 of 2): EVKLEESGGGLVQPGGSMKLSCVASGITFSNFWMNWVRQSPEKGLEWVAQIRLKSDDYATHYAESVKGRFTISRDDSKGSVYLQMNNLRTEDTGIHYCTTGYYFDYWGQGTTLTVSS
binds	binds	mab010 scFv-hFc (Fc fusion, human-murine chimeric scFv-hFc, VL-linker-VH-human IgG1 Fc; not shown: linker; Fc fragment of human IgG1) scFv (part 1 of 2): DIQMTQSPASLSVSVGETVTITCRASENINSNLAWYQQKQGKSPQLLVYAATNLADGVPSRFSGSGSGTQFSLKISGLQSEDFGSYYCQHFWGLPWTFGGGTKLEIR scFv (part 2 of 2): QVQLQQSGAELARPGASMKLSCKASGYTFTSYGISWVKQITGQGLEWIGEIFPRSGNTYDNENFRGKATLTADKSSSTAYLEVRSLTSEDSAVYFCARTTVFAPYYFDYWGQGTTLTVSS
